Laboratory results: patent publication US20250018053A1

What was measured:
Test in all cases: flow cytometry, transfected CHO cells
[1] = target: Mouse N4
[2] = target: Human N4 (human) (UniProt Q96NY8)
[3] = target: Rat N4
[4] = target: Monkey N4

Human N4 (human), sequence (Q96NY8 32-510): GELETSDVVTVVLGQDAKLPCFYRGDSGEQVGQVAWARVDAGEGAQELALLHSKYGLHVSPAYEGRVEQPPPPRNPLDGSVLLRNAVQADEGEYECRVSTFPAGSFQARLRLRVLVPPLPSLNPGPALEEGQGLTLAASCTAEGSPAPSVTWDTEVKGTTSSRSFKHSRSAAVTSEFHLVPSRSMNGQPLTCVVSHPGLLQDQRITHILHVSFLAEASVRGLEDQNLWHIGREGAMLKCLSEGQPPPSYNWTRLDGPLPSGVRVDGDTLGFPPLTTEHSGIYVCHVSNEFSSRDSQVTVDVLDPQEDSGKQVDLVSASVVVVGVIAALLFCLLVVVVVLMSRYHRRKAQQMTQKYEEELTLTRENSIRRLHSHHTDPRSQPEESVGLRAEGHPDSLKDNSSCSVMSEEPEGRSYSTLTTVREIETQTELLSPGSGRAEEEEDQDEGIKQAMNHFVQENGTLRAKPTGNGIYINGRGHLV

Substance: Enfortumab (HA22)
- EC50 [1]: 41.1 nM
- EC50 [2]: 0.346 nM
- EC50 [3]: 0.097 nM
- EC50 [4]: 0.0678 nM
